For assay [1], the target named is T1, Vaccinia virus A56 antigen (Wyeth VV sequence) expressed on HEK cells (Vaccinia virus, Wyeth strain, UniProt P20978 17-315).
T1 construct: also called HEK-A56; HEK-A56 (GFP)
T1 chain: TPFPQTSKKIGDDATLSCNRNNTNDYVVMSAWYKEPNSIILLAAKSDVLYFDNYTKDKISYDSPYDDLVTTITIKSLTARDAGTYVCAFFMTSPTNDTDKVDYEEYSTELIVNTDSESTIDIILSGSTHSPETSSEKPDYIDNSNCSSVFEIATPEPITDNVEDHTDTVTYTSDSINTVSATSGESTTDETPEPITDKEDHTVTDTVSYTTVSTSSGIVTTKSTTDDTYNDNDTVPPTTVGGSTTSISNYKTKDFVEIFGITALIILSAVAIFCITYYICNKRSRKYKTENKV
Kind of assay: flow cytometry on HEK-A56 (GFP) cells. In general terms: In flow cytometry, cells or beads pass a laser one at a time.

Assay [2] concerns the target T2, A56.hFc (Vaccinia virus, Wyeth strain, UniProt P20978 17-279).
T2 construct: also called A56 human Fc fusion protein; A56 protein
T2 chain: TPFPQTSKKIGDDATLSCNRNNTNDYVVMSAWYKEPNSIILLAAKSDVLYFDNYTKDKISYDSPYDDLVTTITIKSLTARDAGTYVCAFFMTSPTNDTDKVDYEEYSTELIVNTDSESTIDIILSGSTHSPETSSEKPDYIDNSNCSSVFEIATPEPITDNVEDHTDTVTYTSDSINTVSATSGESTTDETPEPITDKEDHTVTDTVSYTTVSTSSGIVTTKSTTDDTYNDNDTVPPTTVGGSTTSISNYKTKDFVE
Briefly: SPR Biacore T200, antibody amine-coupled, A56.hFc as analyte, 1:1 Langmuir fit. (Surface plasmon resonance follows binding to a sensor surface in real time, without labels.)

Assay [3] has as its target T3, Vaccinia virus B5 antigen (Wyeth VV sequence) expressed on HEK cells (Vaccinia virus, Wyeth strain, UniProt O57254 18-317).
T3 construct: also called HEK-B5; HEK-B5 (GFP)
Kind of assay: flow cytometry on HEK-B5 (GFP) cells (panel 'HEKB5').

Assay [4] deals with T4, Vaccinia virus A56 antigen, Western Reserve strain VVdd (eGFP) (Vaccinia virus, Western Reserve strain, UniProt Q01218 17-314).
For assay [5], the target named is T2, A56.hFc. Briefly: SPR Biacore T200, antibody amine-coupled, […].
In assay [6] the target is T3, Vaccinia virus B5 antigen (Wyeth VV …). Briefly: immunohistochemistry (DAB) on histogel sections of HEK-B5 cells.
Assay [7] addresses T4, Vaccinia virus A56 antigen, Western …. Kind of assay: flow cytometry on VVdd (eGFP)-infected A549 cells.
In assay [8] the target is T5, Vaccinia virus B5 antigen, Western Reserve strain VVdd (eGFP) (Vaccinia virus, Western Reserve strain, UniProt Q01227 18-317).
T5 construct: also called B5 on VVdd (eGFP)-infected cells
Briefly: ELISA on plate-coated VVdd (eGFP) virus particles, HRP anti-hIgG Fc, upper panel.

Assay [9] concerns the target T3, Vaccinia virus B5 antigen (Wyeth VV …). Briefly: flow cytometry on HEK-B5 (GFP) cells.
Assay [10] concerns the target T4, Vaccinia virus A56 antigen, Western …. Kind of assay: ELISA on plate-coated VVdd (eGFP) virus particles, HRP anti-hIgG Fc, lower panel.
For assay [11], the target named is T5, Vaccinia virus B5 antigen, Western …. Briefly: flow cytometry on VVdd (eGFP)-infected A549 cells.
Assay [12] concerns the target T1, Vaccinia virus A56 antigen (Wyeth VV …). Briefly: immunohistochemistry (DAB) on histogel sections of HEK-A56 cells.
Assay [13] deals with T6, B5.hFc (Vaccinia virus, Wyeth strain, UniProt O57254 18-279).
T6 construct: also called B5.hFc soluble antigen; B5 human Fc fusion protein
Kind of assay: SPR Biacore T200, antibody amine-coupled, B5.hFc as analyte, 1:1 Langmuir fit.

The target of assay [14] is T5, Vaccinia virus B5 antigen, Western …. Briefly: flow cytometry on VVdd (eGFP)-infected A549 cells. This is another data set of the same source.
Assay [15] deals with T6, B5.hFc. Kind of assay: SPR Biacore T200, antibody amine-coupled, […].
Assay [16] concerns the target T5, Vaccinia virus B5 antigen, Western …. Kind of assay: flow cytometry on VVdd (eGFP)-infected HT29 cells.

B1: A054 (antibody, V domains shown)
VH: QEQVVESGGGLVKPGASLTLTCTASGFTLSSSYWICWVRQAPGKGPEWIACTYNGDGSTHYASWAKGRFTISKSSSTTVTLQMTSLTAADTATYFCARDYTDAFYTYGFNLWGPGTLVTVSS
VL: DIVMTQTPASVSEPVGGTVTIKCQASQSTSSYLAWYQQKPGQPPKLLIYRASSLASGVPSRFKGSGSATEFTLTISDLECADAATYYCQTGFYGSSGHTFGGGTEVVVK
notes: also called A054 (A56); anti-A56 rabbit antibody A054 hIgG1
B1: the binding result in [1] is “binds”. Besides, in the assay with A56.hFc [2], the koff – broadly, the first-order rate constant of dissociation – is 0.0141 s⁻¹ and the kon (usually a measure of how fast the partners come together) came out at 925000 M⁻¹ s⁻¹. Besides, the binding result in assay [3] is given as “no binding (tested: about 330 nM)”. Also, in assay [4], the EC50 (read off the curve) (in general, the concentration needed to bring the measured effect to its halfway point) is around 5 nM. The Kd (as a rule, the concentration at which binding is half-saturated) in the assay with A56.hFc [5] came to 15.3 nM.

B2: A059 (antibody, V domains shown)
VH: QSLEESGGDLVKPGASLTLTCTASGIDFSDIYYISWVRQAPGKGLEWIACTYAGSSGSTYYATWAKGRFTISKASSTTVTLQMTSLTAADTATYFCARDRYPGTSGRVYGMDLWGPGTLVTVSS
VL: VVMTQTPSSVSEPVGGTVTIKCQASQSISDLLSWYQQKPGQPPKLLIYSASTLASGVSSRFKGSGSGTEFTLTISDLECADAATYYCQCNYYSPTYGNGFGGGTEVVVK
notes: also called A059 anti-A56, Rb/Mu IgG2a; A049/A059/A056
In the case of B2, the binding result in assay [6] is reported as “no binding (tested: 10 ug/mL)”. Further, in [7], the EC50 (commonly the concentration at which the effect is half-maximal) came out at 5 nM.

B3: A056 (antibody, V domains shown)
VH: QSLEESGGDLVKPGASLTLTCTASGIDFSDIYYISWVRQAPGKGLEWIACTYAGSSGSTYYATWAKGRFTISKASSTTVTLQMTSLTAADTATYFCARDRYPGTSGRVYGMDLWGPGTLVTVSS
VL: VVMTQTPSSVSEPVGGTVTIKCQASQSISDLLSWYQQKPGQPPKLLIYSASTLASGVSSRFKGSGSGTEFTLTISDLECADAATYYCQCNYYSPTYGNGFGGGTEVVVK
notes: also called A056 anti-A56, Rb IgG; anti-A56-PE (A056, Rb IgG)
Consider B3, for which the binding result in assay [6] is “no binding (tested: 10 ug/mL)”. This molecule showed an EC50 in assay [7] of 16 nM.

B4: A049 (antibody, V domains shown)
VH: QSLEESGGDLVKPGASLTLTCTASGIDFSDIYYISWVRQAPGKGLEWIACTYAGSSGSTYYATWAKGRFTISKASSTTVTLQMTSLTAADTATYFCARDRYPGTSGRVYGMDLWGPGTLVTVSS
VL: VVMTQTPSSVSEPVGGTVTIKCQASQSISDLLSWYQQKPGQPPKLLIYSASTLASGVSSRFKGSGSGTEFTLTISDLECADAATYYCQCNYYSPTYGNGFGGGTEVVVK
notes: also called A049 (A56); A049 anti-A56 hIgG1
Regarding B4, in the assay with A56.hFc [2], the koff worked out at 2.27e-05 s⁻¹ and the kon was 395000 M⁻¹ s⁻¹. Moreover, a half-maximal effect in [7] (EC50) was put at 14 nM. In addition, the Kd with A56.hFc [5] is at most 0.1 nM.

B5: A051 (antibody, V domains shown)
VH: QEQVEESGGGLAKPGASLTLTCEASGFTLSSYWMCWVRQAPGKGLEWIACIYGGSSGSTYYSNWAKGRFTISKTSSTTVTLQMTSLTAADTATYFCARDGSTWDYFRLWGPGTLVTVSS
VL: YDMTQTPSSVEAAVGGTVTIKCQASQSINTNYLSWYQQKPGQPPKLLIYQASTLESGVPSRFKGSGSGTEYTLTISDLECADAATYYCQGYYTVENIGNPFGGGTEVVVK
notes: also called anti-B5 rabbit antibody A051 hIgG1
Turning to B5, the binding result in assay [8] and in [9] was “binds” in each case.

B6: A050 (antibody, V domains shown)
VH: QSLEESGGDLVKPGASLTLTCTASGFSFSSSYWLCWARQAPGKGPEWIACIYNGDGSTHYASWAKGRFTISKSSSTTVTLQMTSLTAADTATYFCARDYTYNFYTYGFNLWGPGTLVTVSS
VL: FELTQTPSSVEAAVGGTVTINCQASQSVNIWASWYQQKPGQPPKLLIYKASTLASGVPSRFKGSGSGTEFTLTISDLECADAATYYCQGGYPSSSSGWAFGGGTEVVVK
notes: also called A050 (A56); anti-A56 rabbit antibody A050 hIgG1
Turning to B6, the binding result in assay [10] is “binds”; in [1] it was “binds”; in [3] it was “no binding (tested: about 330 nM)”. In addition, the koff with A56.hFc [2] came out at 5.07e-05 s⁻¹. In the assay with A56.hFc [2], the kon turned out to be 99800 M⁻¹ s⁻¹. The molecule further showed a Kd with A56.hFc [5] of 0.507 nM.

B7: A073 (antibody, V domains shown)
VH: QEQLEESGGGLVKPEGSLTLTCTASGFSFSSSYYMCWVRQAPGRGLEWIACIYTSSGSAYYANWAKGRFTISRTSSTTVTLQMTRLTAADTATYFCVRNAVGSSYYLYLWGPGTLVTVSS
VL: QVLTQTPSPVSAAVGGTVTISCQASQSVAGNNYLSWYQQKPGQPPNLLIYSVSTLASGVPSRFKGSGSGTQFTLTISDLECDDAATYYCQGYYNDGIWAFGGGTEVVVK
notes: also called A073 anti-B5, Rb IgG; anti-B5-PE (A073, Rb IgG)
In assay [11], B7 gave an EC50 of 3 nM. Besides, the binding result in assay [12] is reported as “no binding (tested: 10 ug/mL)”.

B8: A048 (antibody, V domains shown)
VH: QEQLEESGGGLVKPEGSLTLTCTASGFSFSSSYYMCWVRQAPGRGLEWIACIYTSSGSAYYANWAKGRFTISRTSSTTVTLQMTRLTAADTATYFCVRNAVGSSYYLYLWGPGTLVTVSS
VL: QVLTQTPSPVSAAVGGTVTISCQASQSVAGNNYLSWYQQKPGQPPNLLIYSVSTLASGVPSRFKGSGSGTQFTLTISDLECDDAATYYCQGYYNDGIWAFGGGTEVVVK
notes: also called anti-B5 A048 hIgG1
Molecule B8 yielded a koff in the assay with B5.hFc [13] of 2.21e-05 s⁻¹. In the assay with B5.hFc [13], this molecule returned a kon of 29700 M⁻¹ s⁻¹. Also, the EC50 was determined as 9 nM in assay [11], 6 nM in assay [14] and 1.1 nM in [16]. The molecule further came in with a Kd with B5.hFc [15] of 0.745 nM.

B9: A058 (antibody, V domains shown)
VH: QEQLEESGGGLVKPEGSLTLTCTASGFSFSSSYYMCWVRQAPGRGLEWIACIYTSSGSAYYANWAKGRFTISRTSSTTVTLQMTRLTAADTATYFCVRNAVGSSYYLYLWGPGTLVTVSS
VL: QVLTQTPSPVSAAVGGTVTISCQASQSVAGNNYLSWYQQKPGQPPNLLIYSVSTLASGVPSRFKGSGSGTQFTLTISDLECDDAATYYCQGYYNDGIWAFGGGTEVVVK
notes: also called A058 anti-B5, Rb/Mu IgG2a; A048/A058/A073
For B9, the EC50 in assay [11] was found to be 3 nM. For the same molecule, the binding result in [12] was “no binding (tested: 10 ug/mL)”.

B10: A047 (antibody, V domains shown)
VH: QEQLEESGGDLVKPEGSLTLTCTASGFSFSSSYWICWVRQAPGKGLEWIACIYAGSGGSTYYATWAKGRFTISKTSSTTVTLQMTSLTAADTASYFCVRAYSDRSGGYSFNLWGPGTLVTVSS
VL: QVLTQTASPVSAAVGGTVTINCQASQSVDNNNYLAWYQQKPGQPPKQLIYSASSLASGVPSRFKGSGSGTQFTLTISDVQCDDAATYYCLGSYDCSDADCYAFGGGTEVVVK
notes: also called A047 (A56); anti-A56 rabbit antibody A047 hIgG1
Consider B10, for which the results for the binding result in [10], in assay [1] and in [3] were “binds”, “binds” and “no binding (tested: about 330 nM)”, respectively. The molecule also displayed a koff with A56.hFc [2] of 4.5e-05 s⁻¹. Further, the kon with A56.hFc [2] was found to be 19200 M⁻¹ s⁻¹. In the assay with A56.hFc [5], binding was put at a Kd of 2.34 nM.
